Legend:
[1] = Porphyrin binding to apo-protein, electronic absorption spectra ((CF3)4PZn loading)
Protocol: FIGS. 3A-3D. Biophysical characterization of apo- and holo-PS1. FIG. 3A: Electronic absorption and emission spectra of (CF3)4PZn/PS1 holo-protein and (CF3)4PZn in toluene solvent. […] FIG. 3B: Determination of KD by apo-PS1 titration into a buffer solution (100 mM NaCl, 50 mM NaPi, pH 7.5) of (CF3)4PZn with 1% w/v octyl-b-D-glucopyranoside. […] FIG. 3C: Circular dichroism (CD) spectra of apo- and holo-PS1 in 50 mM NaPi, 100 mM NaCl, pH 7.5 as a function of temperature. The transitions appear reversible based on the fact that the spectra are identical after cooling to room temperature. Units are in molar residue ellipticity. […] FIG. 3D: Pump-probe transient absorption spectra of (CF3)4PZn bound in the interior of holo-PS1 at 21° C. and 100° C. […] Inset exemplifies identical transient dynamics (primarily intersystem crossing from S1 to T1) at ΔAbs.=482 nm (scaled). Experimental conditions: solvent=50 mM NaPi, 100 mM NaCl, pH 7.5; excitation wavelength=600±5 nm; magic-angle polarization between pump and probe pulses; pump-probe cross-correlation of ˜250 fs.
FIG. 10. Absorption spectra of (CF3)4PZn/PS1 and (CF3)4PZn/PS2 complexes. […] Experimental conditions: buffer=100 mM NaCl, 50 mM NaPi, pH 7.5.
A 2-fold excess of the cofactor (CF3)4PZn was added from a 4 mM DMSO stock solution to a 50 mM NaPi, 100 mM NaCl, pH 7.5 buffer with apo-protein (Note that final DMSO concentrations were kept <1%.). Buffer solution of apo-PS1 protein was heated for 5 minutes at 50° C., (CF3)4PZn was then added from the DMSO stock solution, the resultant mixture was vortexed for 5 seconds, and placed back in the heat block at 50° C. for 15 minutes, with vortexing every 3 minutes. The protein/cofactor solution was then spun at 14000×g in a Amicon Ultra-0.5 mL centrifuge filter for 10 min, three times, replacing the buffer to 0.5 mL after each 10 min spin. Finally, the protein solution was spun for 4 min at 12000×g in an Amicon ultrafree-MC GV filter (UFC30GV0S). The holo-PS1 sample was then used for spectroscopic experiments immediately afterward, and diluted to an appropriate concentration if necessary. Binding of (CF3)4PFe was carried out in the same fashion, with the exception that the porphyrin was first dissolved in a stock of DMSO/CHCl3.
Electronic absorption spectra were collected using a Shimadzu UV-1700 UV-Vis spectrophotometer or Cary 5000 spectrophotometer. Steady-state emission spectra were obtained on FLS920P spectrophotometer (Edinburgh Instruments Ltd. Livingston, UK) in 1 cm quartz optical cells. The steady-state emission spectra were corrected using the correction factor generated by the manufacturer.

[2] = Binding of endogenous heme on expression in E. coli (absorption spectra); type: cell-based; details: expressed in E. coli, Soret and Q bands at 410 and 550 nm
Protocol: FIGS. 18A-18B. enFold proteins are capable of noncovalently binding endogenous ligands in the cell. […] Inset: E. coli cultures of after induction). FIG. 18B: Denovo proteins from binary sequence patterning. Previous studies have only been able to incorporate heme exogenously, i.e. after expression and purification, heme is added to the purified apo-protein. See Patel et al, Protein Science, 18:1388-1400.
The computational method described here is capable of producing proteins that noncovalently bind ligands in vivo. We have observed loading of endogenous heme in a PS1 variant, where 7 terminal residues near the binding ligand site were deleted to allow incorporation of a heme ligand with its bulky, charged proprionate functional groups (FIG. 16). […] These apo-proteins remain competent to bind an endogenous ligand, for example heme (FIG. 17 and FIGS. 18A-18B). These proteins are the first de novo designed proteins to our knowledge that noncovalently bind heme in vivo.

B1: PS2: second designed porphyrin-binding protein with redesigned core (Ser94, Trp68), SEQ ID NO:7 (protein)
chain: SEFEKLRQTGDEIIQLLQRLREAIDKGDDDSLEQILEELEEAFQKHRQLFENRQEAADTEFAKQGDQWLQLFQRIREAIDKGDKDSLEQLFEESEQGIQKIRELAEKKN
porphyrin loading ([1]; (CF3)4PZn, based on absorbance at 280 nm and 423 nm, 100 mM NaCl, 50 mM NaPi, pH 7.5): 100%
binding of (CF3)4PZn ([1]; narrow electronic absorption bands of the porphyrin): bound (CF3)4PZn in a homogenous environment

B2: PS1 D103-109: PS1 variant with 7 terminal residues near the ligand binding site deleted, SEQ ID NO:8 (protein)
chain: EFEKLRQTGDELVQAFQRLREIFDKGDDDSLEQVLEEIEELIQKHRQLFDNRQEAADTEAAKQGDQWVQLFQRFREAIDKGDKDSLEQLLEELEQALQKIR
binding / loading of endogenous heme [2]: high loading of endogenous heme
binding / loading of endogenous heme ([2]; listed as PS1 deletion variant): binds endogenous heme
